Among the data in patent US20100003195A1 are coverage % of the imaged surface values, retold here.

Assay [1] concerns the target KDR on KDR-transfected 293H cells (human) (UniProt P35968). Put plainly: scrambled-peptide microballoons (Example 37) on KDR-transfected 293H cells, microscopy.
For assay [2] the target is unchanged. Put plainly: scrambled-peptide microbubbles (Example 35) on KDR-transfected 293H cells, microscopy.
For assay [3] the target is unchanged. Put plainly: scrambled-peptide microbubbles (Example 36) on KDR-transfected 293H cells, microscopy.

With “microvesicles conjugated to a scrambled control peptide”, the values for the coverage % of the imaged surface in assay [1], in assay [2] and in assay [3] were 0.1%, 2.1% and 2.2%, respectively.
